In paper PMC4677358:

Experiments:
[1] = target: RuvA (bound to Holliday junction DNA) (E. coli) (UniProt P0A809); experiment: single-molecule fluorescence imaging in zero mode waveguides (counting of Cy5 photobleaching steps); 400 nM RuvA with 40 nM biotinylated Cy3-Holliday junction DNA held by streptavidin in the nanoholes, unbound washed out; 400 nM Cy5-RuvB added; 20 mM HEPES-KOH pH 8.0, 10 mM MgCl2; 25 ± 2 °C; holes with a single DNA; step counts fitted for the 42% labeling ratio; 0.5 mM ADP and 0.5 mM ATPγS
Chain of UniProt P0A809 (P0A809 whole entry): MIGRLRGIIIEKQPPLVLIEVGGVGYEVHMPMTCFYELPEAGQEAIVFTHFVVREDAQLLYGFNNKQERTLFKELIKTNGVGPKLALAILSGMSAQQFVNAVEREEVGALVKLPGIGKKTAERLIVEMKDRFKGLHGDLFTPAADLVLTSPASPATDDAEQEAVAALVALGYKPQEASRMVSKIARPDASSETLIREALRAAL

[2] = target: RuvA (bound to Holliday junction DNA) (E. coli) (UniProt P0A809); experiment: single-molecule fluorescence imaging in zero mode waveguides (counting of Cy5 photobleaching steps); 400 nM RuvA with 40 nM biotinylated Cy3-Holliday junction DNA held by streptavidin in the nanoholes, unbound washed out; 400 nM Cy5-RuvB added; 20 mM HEPES-KOH pH 8.0, 10 mM MgCl2; 25 ± 2 °C; holes with a single DNA; step counts fitted for the 42% labeling ratio; 1 mM ATPγS
[3] = target: RuvA (bound to Holliday junction DNA) (E. coli) (UniProt P0A809); experiment: single-molecule fluorescence imaging in zero mode waveguides (counting of Cy5 photobleaching steps); 400 nM RuvA with 40 nM biotinylated Cy3-Holliday junction DNA held by streptavidin in the nanoholes, unbound washed out; 400 nM Cy5-RuvB added; 20 mM HEPES-KOH pH 8.0, 10 mM MgCl2; 25 ± 2 °C; holes with a single DNA; step counts fitted for the 42% labeling ratio; no nucleotide
[4] = target: RuvA (bound to Holliday junction DNA) (E. coli) (UniProt P0A809); experiment: single-molecule fluorescence imaging in zero mode waveguides (counting of Cy5 photobleaching steps); 400 nM RuvA with 40 nM biotinylated Cy3-Holliday junction DNA held by streptavidin in the nanoholes, unbound washed out; 400 nM Cy5-RuvB added; 20 mM HEPES-KOH pH 8.0, 10 mM MgCl2; 25 ± 2 °C; holes with a single DNA; step counts fitted for the 42% labeling ratio; 1 mM ADP
[5] = target: RuvA (bound to Holliday junction DNA) (E. coli) (UniProt P0A809)

Chain of RuvB (P0A812 whole entry): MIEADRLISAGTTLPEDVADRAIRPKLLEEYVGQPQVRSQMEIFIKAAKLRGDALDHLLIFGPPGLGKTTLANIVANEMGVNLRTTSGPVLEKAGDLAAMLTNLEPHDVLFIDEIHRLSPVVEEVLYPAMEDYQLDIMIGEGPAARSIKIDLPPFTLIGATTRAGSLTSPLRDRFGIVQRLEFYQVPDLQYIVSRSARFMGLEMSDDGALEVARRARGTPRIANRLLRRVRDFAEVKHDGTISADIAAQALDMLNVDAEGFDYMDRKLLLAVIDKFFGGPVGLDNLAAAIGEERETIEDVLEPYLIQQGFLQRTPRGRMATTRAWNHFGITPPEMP

Cy5-labeled RuvB-S39C (from UniProt P0A812 1-336) (enzyme)
% of Holliday junction DNA (with RuvA) that interacted with RuvB (fit, dimer model of Table 2) [1]: 97%
% of Holliday junction DNA (with RuvA) that interacted with RuvB (fit, monomer model) [1]: 98%
% of RuvA-Holliday junction DNA complexes with 0 RuvB dimers bound (fit, dimer model, Cy5 at random) [1]: 3%
% of RuvA-Holliday junction DNA complexes with 0 RuvB dimers bound (fit, dimer model, one Cy5 per labelled dimer) [1]: 14%
% of RuvA-Holliday junction DNA complexes with 0 RuvBs bound (fit, monomer model) [1]: 2%
% of RuvA-Holliday junction DNA complexes with 1 RuvB dimers bound (fit, dimer model, Cy5 at random) [1]: 24%
% of RuvA-Holliday junction DNA complexes with 1 RuvB dimers bound (fit, dimer model, one Cy5 per labelled dimer) [1]: 29%
% of RuvA-Holliday junction DNA complexes with 1 RuvBs bound (fit, monomer model) [1]: 5%
% of RuvA-Holliday junction DNA complexes with 2 RuvB dimers bound (fit, dimer model, Cy5 at random) [1]: 70%
% of RuvA-Holliday junction DNA complexes with 2 RuvB dimers bound (fit, dimer model, one Cy5 per labelled dimer) [1]: 33%
% of RuvA-Holliday junction DNA complexes with 2 RuvBs bound (fit, monomer model) [1]: 8%
% of RuvA-Holliday junction DNA complexes with 3 RuvB dimers bound (fit, dimer model, Cy5 at random) [1]: 3%
% of RuvA-Holliday junction DNA complexes with 3 RuvB dimers bound (fit, dimer model, one Cy5 per labelled dimer) [1]: 19%
% of RuvA-Holliday junction DNA complexes with 3 RuvBs bound (fit, monomer model) [1]: 31%
% of RuvA-Holliday junction DNA complexes with 4 RuvB dimers bound (fit, dimer model, Cy5 at random) [1]: 0%
% of RuvA-Holliday junction DNA complexes with 4 RuvB dimers bound (fit, dimer model, one Cy5 per labelled dimer) [1]: 4%
% of RuvA-Holliday junction DNA complexes with 4 RuvBs bound (fit, monomer model) [1]: 37%
% of RuvA-Holliday junction DNA complexes with 5 RuvB dimers bound (fit, dimer model, Cy5 at random) [1]: 0%
% of RuvA-Holliday junction DNA complexes with 5 RuvB dimers bound (fit, dimer model, one Cy5 per labelled dimer) [1]: 1%
% of RuvA-Holliday junction DNA complexes with 5 RuvBs bound (fit, monomer model) [1]: 14%
% of RuvA-Holliday junction DNA complexes with 6 RuvB dimers bound (fit, dimer model, Cy5 at random) [1]: 0%
% of RuvA-Holliday junction DNA complexes with 6 RuvB dimers bound (fit, dimer model, one Cy5 per labelled dimer) [1]: 0%
% of RuvA-Holliday junction DNA complexes with 6 RuvBs bound (fit, monomer model) [1]: 3%
% of Holliday junction DNA (with RuvA) that interacted with RuvB (fit, monomer model) [2]: 92%
% of RuvA-Holliday junction DNA complexes with 0 RuvB dimers bound (fit, dimer model, Cy5 at random) [2]: 11%
% of RuvA-Holliday junction DNA complexes with 0 RuvB dimers bound (fit, dimer model, one Cy5 per labelled dimer) [2]: 23%
% of RuvA-Holliday junction DNA complexes with 0 RuvBs bound (fit, monomer model) [2]: 8%
% of RuvA-Holliday junction DNA complexes with 1 RuvB dimers bound (fit, dimer model, Cy5 at random) [2]: 36%
% of RuvA-Holliday junction DNA complexes with 1 RuvB dimers bound (fit, dimer model, one Cy5 per labelled dimer) [2]: 32%
% of RuvA-Holliday junction DNA complexes with 1 RuvBs bound (fit, monomer model) [2]: 12%
% of RuvA-Holliday junction DNA complexes with 2 RuvB dimers bound (fit, dimer model, Cy5 at random) [2]: 53%
% of RuvA-Holliday junction DNA complexes with 2 RuvB dimers bound (fit, dimer model, one Cy5 per labelled dimer) [2]: 27%
% of RuvA-Holliday junction DNA complexes with 2 RuvBs bound (fit, monomer model) [2]: 18%
% of RuvA-Holliday junction DNA complexes with 3 RuvB dimers bound (fit, dimer model, Cy5 at random) [2]: 0%
% of RuvA-Holliday junction DNA complexes with 3 RuvB dimers bound (fit, dimer model, one Cy5 per labelled dimer) [2]: 14%
% of RuvA-Holliday junction DNA complexes with 3 RuvBs bound (fit, monomer model) [2]: 19%
% of RuvA-Holliday junction DNA complexes with 4 RuvB dimers bound (fit, dimer model, Cy5 at random) [2]: 0%
% of RuvA-Holliday junction DNA complexes with 4 RuvB dimers bound (fit, dimer model, one Cy5 per labelled dimer) [2]: 4%
% of RuvA-Holliday junction DNA complexes with 4 RuvBs bound (fit, monomer model) [2]: 31%
% of RuvA-Holliday junction DNA complexes with 5 RuvB dimers bound (fit, dimer model, Cy5 at random) [2]: 0%
% of RuvA-Holliday junction DNA complexes with 5 RuvB dimers bound (fit, dimer model, one Cy5 per labelled dimer) [2]: 0%
% of RuvA-Holliday junction DNA complexes with 5 RuvBs bound (fit, monomer model) [2]: 12%
% of RuvA-Holliday junction DNA complexes with 6 RuvB dimers bound (fit, dimer model, Cy5 at random) [2]: 0%
% of RuvA-Holliday junction DNA complexes with 6 RuvB dimers bound (fit, dimer model, one Cy5 per labelled dimer) [2]: 0%
% of RuvA-Holliday junction DNA complexes with 6 RuvBs bound (fit, monomer model) [2]: 0%
% of Holliday junction DNA (with RuvA) that interacted with RuvB (fit, monomer model) [3]: 77%
% of RuvA-Holliday junction DNA complexes with 0 RuvB dimers bound (fit, dimer model, Cy5 at random) [3]: 35%
% of RuvA-Holliday junction DNA complexes with 0 RuvB dimers bound (fit, dimer model, one Cy5 per labelled dimer) [3]: 52%
% of RuvA-Holliday junction DNA complexes with 0 RuvBs bound (fit, monomer model) [3]: 23%
% of RuvA-Holliday junction DNA complexes with 1 RuvB dimers bound (fit, dimer model, Cy5 at random) [3]: 65%
% of RuvA-Holliday junction DNA complexes with 1 RuvB dimers bound (fit, dimer model, one Cy5 per labelled dimer) [3]: 38%
% of RuvA-Holliday junction DNA complexes with 1 RuvBs bound (fit, monomer model) [3]: 37%
% of RuvA-Holliday junction DNA complexes with 2 RuvB dimers bound (fit, dimer model, Cy5 at random) [3]: 0%
% of RuvA-Holliday junction DNA complexes with 2 RuvB dimers bound (fit, dimer model, one Cy5 per labelled dimer) [3]: 10%
% of RuvA-Holliday junction DNA complexes with 2 RuvBs bound (fit, monomer model) [3]: 40%
% of RuvA-Holliday junction DNA complexes with 3 RuvB dimers bound (fit, dimer model, Cy5 at random) [3]: 0%
% of RuvA-Holliday junction DNA complexes with 3 RuvB dimers bound (fit, dimer model, one Cy5 per labelled dimer) [3]: 0%
% of RuvA-Holliday junction DNA complexes with 3 RuvBs bound (fit, monomer model) [3]: 0%
% of RuvA-Holliday junction DNA complexes with 4 RuvB dimers bound (fit, dimer model, Cy5 at random) [3]: 0%
% of RuvA-Holliday junction DNA complexes with 4 RuvB dimers bound (fit, dimer model, one Cy5 per labelled dimer) [3]: 0%
% of RuvA-Holliday junction DNA complexes with 4 RuvBs bound (fit, monomer model) [3]: 0%
% of RuvA-Holliday junction DNA complexes with 5 RuvB dimers bound (fit, dimer model, Cy5 at random) [3]: 0%
% of RuvA-Holliday junction DNA complexes with 5 RuvB dimers bound (fit, dimer model, one Cy5 per labelled dimer) [3]: 0%
% of RuvA-Holliday junction DNA complexes with 5 RuvBs bound (fit, monomer model) [3]: 0%
% of RuvA-Holliday junction DNA complexes with 6 RuvB dimers bound (fit, dimer model, Cy5 at random) [3]: 0%
% of RuvA-Holliday junction DNA complexes with 6 RuvB dimers bound (fit, dimer model, one Cy5 per labelled dimer) [3]: 0%
% of RuvA-Holliday junction DNA complexes with 6 RuvBs bound (fit, monomer model) [3]: 0%
% of Holliday junction DNA (with RuvA) that interacted with RuvB (fit, monomer model) [4]: 90%
% of RuvA-Holliday junction DNA complexes with 0 RuvB dimers bound (fit, dimer model, Cy5 at random) [4]: 11%
% of RuvA-Holliday junction DNA complexes with 0 RuvB dimers bound (fit, dimer model, one Cy5 per labelled dimer) [4]: 26%
% of RuvA-Holliday junction DNA complexes with 0 RuvBs bound (fit, monomer model) [4]: 10%
% of RuvA-Holliday junction DNA complexes with 1 RuvB dimers bound (fit, dimer model, Cy5 at random) [4]: 48%
% of RuvA-Holliday junction DNA complexes with 1 RuvB dimers bound (fit, dimer model, one Cy5 per labelled dimer) [4]: 35%
% of RuvA-Holliday junction DNA complexes with 1 RuvBs bound (fit, monomer model) [4]: 10%
% of RuvA-Holliday junction DNA complexes with 2 RuvB dimers bound (fit, dimer model, Cy5 at random) [4]: 41%
% of RuvA-Holliday junction DNA complexes with 2 RuvB dimers bound (fit, dimer model, one Cy5 per labelled dimer) [4]: 26%
% of RuvA-Holliday junction DNA complexes with 2 RuvBs bound (fit, monomer model) [4]: 21%
% of RuvA-Holliday junction DNA complexes with 3 RuvB dimers bound (fit, dimer model, Cy5 at random) [4]: 0%
% of RuvA-Holliday junction DNA complexes with 3 RuvB dimers bound (fit, dimer model, one Cy5 per labelled dimer) [4]: 13%
% of RuvA-Holliday junction DNA complexes with 3 RuvBs bound (fit, monomer model) [4]: 30%
% of RuvA-Holliday junction DNA complexes with 4 RuvB dimers bound (fit, dimer model, Cy5 at random) [4]: 0%
% of RuvA-Holliday junction DNA complexes with 4 RuvB dimers bound (fit, dimer model, one Cy5 per labelled dimer) [4]: 0%
% of RuvA-Holliday junction DNA complexes with 4 RuvBs bound (fit, monomer model) [4]: 29%
% of RuvA-Holliday junction DNA complexes with 5 RuvB dimers bound (fit, dimer model, Cy5 at random) [4]: 0%
% of RuvA-Holliday junction DNA complexes with 5 RuvB dimers bound (fit, dimer model, one Cy5 per labelled dimer) [4]: 0%
% of RuvA-Holliday junction DNA complexes with 5 RuvBs bound (fit, monomer model) [4]: 0%
% of RuvA-Holliday junction DNA complexes with 6 RuvB dimers bound (fit, dimer model, Cy5 at random) [4]: 0%
% of RuvA-Holliday junction DNA complexes with 6 RuvB dimers bound (fit, dimer model, one Cy5 per labelled dimer) [4]: 0%
% of RuvA-Holliday junction DNA complexes with 6 RuvBs bound (fit, monomer model) [4]: 0%

RuvB (from UniProt P0A812 1-336) (enzyme)
ratio of fluorescent spots of Cy3-Holliday junction DNA to nanoholes after addition of 400 nM RuvB with 1 mM ATP and 5 min at 25 °C (about 90% before the addition); loss of spots by branch migration [5]: 16%
